The record followed here is article doi:10.1101/2025.03.21.644603, “Oligomerization enables the selective targeting of intrinsically disordered regions by small molecules” (bioRxiv, 2025).

The series concerns the molecule itself. The series is described as follows: dynamic light scattering; one purified protein in solution; NR ADs at 2 mg/mL (AR AD also 35 µM), Tau-5* at 200 to 500 µM; 5 °C; 20 mM sodium phosphate pH 7.4, 1 mM TCEP, 0.5% DMSO-d6; percent of monomer against higher-order species; also with increasing EPI-001.

B1: activation domain of the glucocorticoid receptor (GR) (domain or fragment, UniProt P04150 1-420, looked up)
chain: MDSKESLTPGREENPSSVLAQERGDVMDFYKTLRGGATVKVSASSPSLAVASQSDSKQRRLLVDFPKGSVSNAQQPDLSKAVSLSMGLYMGETETKVMGNDLGFPQQGQISLSSGETDLKLLEESIANLNRSTSVPENPKSSASTAVSAAPTEKEFPKTHSDVSSEQQHLKGQTGTNGGNVKLYTTDQSTFDILQDLEFSSGSPGKETNESPWRSDLLIDENCLLSPLAGEDDSFLLEGNSNEDCKPLILPDTKPKIKDNGDLVLSSPSNVTLPQVKTEKEDFIELCTPGVIKQEKLGTVYCQASFPGANIIGNKMSAISVHGVSTSGGQMYHYDMNTASLSQQQDQKPIFNVIPPIPVGSENWNRCQGSGDDNLTSLGTLNFPGRTVFSNGYSSPSMRPDVSSPPSSSSTATTGPPPKL
notes: also called GR AD; GR (1-420 aa); source: E. coli Rosetta (DE3), pDEST17, purified (inclusion bodies in urea, HisTrap, tag cleavage, SEC); not shown: His-tag, N-terminal, cleaved
Regarding B1, the binding result is “binds”.

B2: activation domain of the estrogen receptor alpha (ERɑ) (domain or fragment, UniProt P03372 1-184, looked up)
chain: MTMTLHTKASGMALLHQIQGNELEPLNRPQLKIPLERPLGEVYLDSSKPAVYNYPEGAAYEFNAAAAANAQVYGQTGLPYGPGSEAAAFGSNGLGGFPPLNSVSPSPLMLLHPPPQLSPFLQPHGQQVPYYLENEPSGYTVREAGPPAFYRPNSDNRRQGGRERLASTNDKGSMAMESAKETRY
notes: also called ERɑ AD; ERɑ (1-184 aa); source: E. coli Rosetta (DE3), pDEST17, purified (inclusion bodies in urea, HisTrap, tag cleavage, SEC); not shown: His-tag, N-terminal, cleaved
With B2, the binding result is listed as “binds”.

B3: activation domain of the progesterone receptor (PR) (domain or fragment, UniProt P06401 1-566, looked up)
chain: MTELKAKGPRAPHVAGGPPSPEVGSPLLCRPAAGPFPGSQTSDTLPEVSAIPISLDGLLFPRPCQGQDPSDEKTQDQQSLSDVEGAYSRAEATRGAGGSSSSPPEKDSGLLDSVLDTLLAPSGPGQSQPSPPACEVTSSWCLFGPELPEDPPAAPATQRVLSPLMSRSGCKVGDSSGTAAAHKVLPRGLSPARQLLLPASESPHWSGAPVKPSPQAAAVEVEEEDGSESEESAGPLLKGKPRALGGAAAGGGAAAVPPGAAAGGVALVPKEDSRFSAPRVALVEQDAPMAPGRSPLATTVMDFIHVPILPLNHALLAARTRQLLEDESYDGGAGAASAFAPPRSSPCASSTPVAVGDFPDCAYPPDAEPKDDAYPLYSDFQPPALKIKEEEEGAEASARSPRSYLVAGANPAAFPDFPLGPPPPLPPRATPSRPGEAAVTAAPASASVSSASSSGSTLECILYKAEGAPPQQGPFAPPPCKAPGASGCLLPRDGLPSTSASAAAAGAAPALYPALGLNGLPQLGYQAAVLKEGLPQVYPPYLNYLRPDSEASQSPQYSFESLPQKI
notes: also called PR AD; PR (1-566 aa); source: E. coli Rosetta (DE3), pDEST17, purified (inclusion bodies in urea, HisTrap, tag cleavage, SEC); not shown: His-tag, N-terminal, cleaved
On to B3, for which the binding result was “binds”.

B4: activation domain of the mineralocorticoid receptor (MR) (domain or fragment, UniProt P08235 1-602, looked up)
chain: METKGYHSLPEGLDMERRWGQVSQAVERSSLGPTERTDENNYMEIVNVSCVSGAIPNNSTQGSSKEKQELLPCLQQDNNRPGILTSDIKTELESKELSATVAESMGLYMDSVRDADYSYEQQNQQGSMSPAKIYQNVEQLVKFYKGNGHRPSTLSCVNTPLRSFMSDSGSSVNGGVMRAVVKSPIMCHEKSPSVCSPLNMTSSVCSPAGINSVSSTTASFGSFPVHSPITQGTPLTCSPNVENRGSRSHSPAHASNVGSPLSSPLSSMKSSISSPPSHCSVKSPVSSPNNVTLRSSVSSPANINNSRCSVSSPSNTNNRSTLSSPAASTVGSICSPVNNAFSYTASGTSAGSSTLRDVVPSPDTQEKGAQEVPFPKTEEVESAISNGVTGQLNIVQYIKPEPDGAFSSSCLGGNSKINSDSSFSVPIKQESTKHSCSGTSFKGNPTVNPFPFMDGSYFSFMDDKDYYSLSGILGPPVPGFDGNCEGSGFPVGIKQEPDDGSYYPEASIPSSAIVGVNSGGQSFHYRIGAQGTISLSRSARDQSFQHLSSFPPVNTLVESWKSHGDLSSRRSDGYPVLEYIPENVSSSTLRSVSTGSSRPSKI
notes: also called MR AD; MR (1-602 aa); source: E. coli Rosetta (DE3), pDEST17, purified (inclusion bodies in urea, HisTrap, tag cleavage, SEC); not shown: His-tag, N-terminal, cleaved
B4: the binding result is “binds”.
